Molecular target: T1, complement factor C1q (Homo sapiens, UniProt P02745 23-245; P02746 28-253; P02747 29-245)
T1 construct: also called soluble C1q
Experiment: in vivo, phase 1b interim analysis in four lupus nephritis patients; pharmacodynamic read-out

T1 sequence (P02745 23-245 limits assumed, chain 1 of 3): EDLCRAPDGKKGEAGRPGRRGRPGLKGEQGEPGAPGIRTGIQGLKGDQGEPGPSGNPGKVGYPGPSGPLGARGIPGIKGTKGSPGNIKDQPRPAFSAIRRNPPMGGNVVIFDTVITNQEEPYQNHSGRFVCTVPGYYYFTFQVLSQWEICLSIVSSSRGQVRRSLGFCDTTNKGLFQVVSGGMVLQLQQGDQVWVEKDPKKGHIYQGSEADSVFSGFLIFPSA
T1 sequence (P02746 28-253 limits assumed, chain 2 of 3): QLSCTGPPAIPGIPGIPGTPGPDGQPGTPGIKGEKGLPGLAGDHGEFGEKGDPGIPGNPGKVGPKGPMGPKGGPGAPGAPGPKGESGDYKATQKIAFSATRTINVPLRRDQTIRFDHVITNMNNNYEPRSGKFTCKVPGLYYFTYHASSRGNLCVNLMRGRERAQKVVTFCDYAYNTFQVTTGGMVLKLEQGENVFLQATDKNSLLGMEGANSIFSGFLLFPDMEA
T1 sequence (P02747 29-245 limits assumed, chain 3 of 3): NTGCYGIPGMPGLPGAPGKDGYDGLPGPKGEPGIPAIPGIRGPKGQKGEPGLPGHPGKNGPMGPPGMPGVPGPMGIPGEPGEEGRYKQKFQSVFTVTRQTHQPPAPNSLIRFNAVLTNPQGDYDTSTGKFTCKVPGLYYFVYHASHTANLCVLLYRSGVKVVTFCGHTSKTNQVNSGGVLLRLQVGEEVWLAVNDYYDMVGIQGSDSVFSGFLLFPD

B1: FabA (Fab)
heavy: QVQLVQSGAELKKPGASVKVSCKSSGYHFTSYWMHWVKQAPGQGLEWIGVIHPNSGSINYNEKFESRVTITVDKSTSTAYMELSSLRSEDTAVYYCAGERDSTEVLPMDYWGQGTTVTVSSASTKGPSVFPLAPSSKSTSGGTAALGCLVKDYFPEPVTVSWNSGALTSGVHTFPAVLQSSGLYSLSSVVTVPSSSLGTQTYICNVNHKPSNTKVDKKVEPKSCDKTHT
light: DVQITQSPSSLSASLGERATINCRASKSINKYLAWYQQKPGKAPKLLIYSGSTLQSGIPARFSGSGSGTDFTLTISSLEPEDFAMYYCQQHNEYPLTFGQGTKLEIKRTVAAPSVFIFPPSDEQLKSGTASVVCLLNNFYPREAKVQWKVDNALQSGNSQESVTEQDSKDSTYSLSSTLTLSKADYEKHKVYACEVTHQGLSSPVTKSFNRGEC
notes: also called anti-C1q Fab; anti-C1q antibody Fab fragment
binding result: binds

From US20250313615A1 (ANNEXON, published 2025)
